System: HEK293FT cells transfected with TF library
Assay: Screening of TF condensates based on fluorescent puncta
Assay type: cell-based
Details: Figure 1B numerical data; TF library screen, one value per transcriptional factor
Summary of the method: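 TF plasmids (final 1.6 μg/ml) reverse-transfected with PEI (4.8 μg/ml) into HEK293FT cells; after 60 h, cells cultured ±glucose for 12 h, fixed in 4% PFA and immunostained for Flag or GAL4 tags with Alexa 488 secondaries. Puncta scored by automated imaging of 50 random fields per well.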

| Molecule | Z score of condensed fraction |
| --- | --- |
| WNT3A (protein, UniProt P56704 19-352, looked up) Protein Wnt-3a: SYPIWWSLAVGPQYSSLGSQPILCASIPGLVPKQLRFCRNYVEIMPSVAEGIKIGIQECQHQFRGRRWNCTTVHDSLAIFGPVLDKATRESAFVHAIASAGVAFAVTRSCAEGTAAICGCSSRHQGSPGKGWKWGGCSEDIEFGGMVSREFADARENRPDARSAMNRHNNEAGRQAIASHMHLKCKCHGLSGSCEVKTCWWSQPDFRAIGDFLKDKYDSASEMVVEKHRESRGWVETLRPRYTYFKVPTERDLVYYEASPNFCEPNPETGSFGTRDRTCNVSSHGIDGCDLLCCGRGHNARAERRREKCRCVFHWCCYVSCQECTRVYDVHTCK | -0.5314 |
| USP22 (protein, UniProt Q9UPT9 1-525, looked up) Ubiquitin carboxyl-terminal …: MVSRPEPEGEAMDAELAVAPPGCSHLGSFKVDNWKQNLRAIYQCFVWSGTAEARKRKAKSCICHVCGVHLNRLHSCLYCVFFGCFTKKHIHEHAKAKRHNLAIDLMYGGIYCFLCQDYIYDKDMEIIAKEEQRKAWKMQGVGEKFSTWEPTKRELELLKHNPKRRKITSNCTIGLRGLINLGNTCFMNCIVQALTHTPLLRDFFLSDRHRCEMQSPSSCLVCEMSSLFQEFYSGHRSPHIPYKLLHLVWTHARHLAGYEQQDAHEFLIAALDVLHRHCKGDDNGKKANNPNHCNCIIDQIFTGGLQSDVTCQVCHGVSTTIDPFWDISLDLPGSSTPFWPLSPGSEGNVVNGESHVSGTTTLTDCLRRFTRPEHLGSSAKIKCSGCHSYQESTKQLTMKKLPIVACFHLKRFEHSAKLRRKITTYVSFPLELDMTPFMASSKESRMNGQYQQPTDSLNNDNKYSLFAVVNHQGTLESGHYTSFIRQHKDQWFKCDDAIITKASIKDVLDSEGYLLFYHKQFLEYE | 0.5078 |
| VAX2 (protein, UniProt Q9UIW0 1-290, looked up) Ventral anterior homeobox 2: MGDGGAERDRGPARRAESGGGGGRCGDRSGAGDLRADGGGHSPTEVAGTSASSPAGSRESGADSDGQPGPGEADHCRRILVRDAKGTIREIVLPKGLDLDRPKRTRTSFTAEQLYRLEMEFQRCQYVVGRERTELARQLNLSETQVKVWFQNRRTKQKKDQSRDLEKRASSSASEAFATSNILRLLEQGRLLSVPRAPSLLALTPSLPGLPASHRGTSLGDPRNSSPRLNPLSSASASPPLPPPLPAVCFSSAPLLDLPAGYELGSSAFEPYSWLERKVGSASSCKKANT | -0.9394 |
| VENTX (protein, UniProt O95231 1-258, looked up) Homeobox protein VENTX: MRLSSSPPRGPQQLSSFGSVDWLSQSSCSGPTHTPRPADFSLGSLPGPGQTSGAREPPQAVSIKEAAGSSNLPAPERTMAGLSKEPNTLRAPRVRTAFTMEQVRTLEGVFQHHQYLSPLERKRLAREMQLSEVQIKTWFQNRRMKHKRQMQDPQLHSPFSGSLHAPPAFYSTSSGLANGLQLLCPWAPLSGPQALMLPPGSFWGLCQVAQEALASAGASCCGQPLASHPPTPGRPSLGPALSTGPRGLCAMPQTGDAF | -0.4099 |
| XBP1 (protein, UniProt P17861 1-261, looked up) X-box-binding protein 1: MVVVAAAPNPADGTPKVLLLSGQPASAAGAPAGQALPLMVPAQRGASPEAASGGLPQARKRQRLTHLSPEEKALRRKLKNRVAAQTARDRKKARMSELEQQVVDLEEENQKLLLENQLLREKTHGLVVENQELRQRLGMDALVAEEEAEAKGNEVRPVAGSAESAALRLRAPLQQVQAQLSPLQNISPWILAVLTLQIQSLISCWAFWTTWTQSCSSNALPQSLPAWRSSQRSTQKDPVPYQPPFLCQWGRHQPSWKPLMN | -0.3977 |
| TWIST1 (protein, UniProt Q15672 1-202, looked up) Twist-related protein 1: MMQDVSSSPVSPADDSLSNSEEEPDRQQPPSGKRGGRKRRSSRRSAGGGAGPGGAAGGGVGGGDEPGSPAQGKRGKKSAGCGGGGGAGGGGGSSSGGGSPQSYEELQTQRVMANVRERQRTQSLNEAFAALRKIIPTLPSDKLSKIQTLKLAARYIDFLYQVLQSDELDSKMASCSYVAHERLSYAFSVWRMEGAWSMSASH | -0.8032 |
| C16orf5 (protein, UniProt Q9H305 1-208, looked up) Cell death-inducing …: MSSEPPPPYPGGPTAPLLEEKSGAPPTPGRSSPAVMQPPPGMPLPPADIGPPPYEPPGHPMPQPGFIPPHMSADGTYMPPGFYPPPGPHPPMGYYPPGPYTPGPYPGPGGHTATVLVPSGAATTVTVLQGEIFEGAPVQTVCPHCQQAITTKISYEIGLMNFVLGFFCCFMGCDLGCCLIPCLINDFKDVTHTCPSCKAYIYTYKRLC | 3.145 |
| UBTF (protein, UniProt P17480 1-764, looked up) Nucleolar transcription …: MNGEADCPTDLEMAAPKGQDRWSQEDMLTLLECMKNNLPSNDSSKFKTTESHMDWEKVAFKDFSGDMCKLKWVEISNEVRKFRTLTELILDAQEHVKNPYKGKKLKKHPDFPKKPLTPYFRFFMEKRAKYAKLHPEMSNLDLTKILSKKYKELPEKKKMKYIQDFQREKQEFERNLARFREDHPDLIQNAKKSDIPEKPKTPQQLWYTHEKKVYLKVRPDATTKEVKDSLGKQWSQLSDKKRLKWIHKALEQRKEYEEIMRDYIQKHPELNISEEGITKSTLTKAERQLKDKFDGRPTKPPPNSYSLYCAELMANMKDVPSTERMVLCSQQWKLLSQKEKDAYHKKCDQKKKDYEVELLRFLESLPEEEQQRVLGEEKMLNINKKQATSPASKKPAQEGGKGGSEKPKRPVSAMFIFSEEKRRQLQEERPELSESELTRLLARMWNDLSEKKKAKYKAREAALKAQSERKPGGEREERGKLPESPKRAEEIWQQSVIGDYLARFKNDRVKALKAMEMTWNNMEKKEKLMWIKKAAEDQKRYERELSEMRAPPAATNSSKKMKFQGEPKKPPMNGYQKFSQELLSNGELNHLPLKERMVEIGSRWQRISQSQKEHYKKLAEEQQKQYKVHLDLWVKSLSPQDRAAYKEYISNKRKSMTKLRGPNPKSSRTTLQSKSESEEDDEEDEDDEDEDEEEEDDENGDSSEDGGDSSESSSEDESEDGDENEEDDEDEDDDEDDDEDEDNESEGSSSSSSSSGDSSDSDSN | -0.959 |
| TSHZ2 (protein, UniProt Q9NRE2 1-1034, looked up) Teashirt homolog 2: MPRRKQQAPKRAAGYAQEEQLKEEEEIKEEEEEEDSGSVAQLQGGNDTGTDEELETGPEQKGCFSYQNSPGSHLSNQDAENESLLSDASDQVSDIKSVCGRDASDKKAHTHVRLPNEAHNCMDKMTAVYANILSDSYWSGLGLGFKLSNSERRNCDTRNGSNKSDFDWHQDALSKSLQQNLPSRSVSKPSLFSSVQLYRQSSKMCGTVFTGASRFRCRQCSAAYDTLVELTVHMNETGHYQDDNRKKDKLRPTSYSKPRKRAFQDMDKEDAQKVLKCMFCGDSFDSLQDLSVHMIKTKHYQKVPLKEPVPTISSKMVTPAKKRVFDVNRPCSPDSTTGSFADSFSSQKNANLQLSSNNRYGYQNGASYTWQFEACKSQILKCMECGSSHDTLQQLTTHMMVTGHFLKVTSSASKKGKQLVLDPLAVEKMQSLSEAPNSDSLAPKPSSNSASDCTASTTELKKESKKERPEETSKDEKVVKSEDYEDPLQKPLDPTIKYQYLREEDLEDGSKGGGDILKSLENTVTTAINKAQNGAPSWSAYPSIHAAYQLSEGTKPPLPMGSQVLQIRPNLTNKLRPIAPKWKVMPLVSMPTHLAPYTQVKKESEDKDEAVKECGKESPHEEASSFSHSEGDSFRKSETPPEAKKTELGPLKEEEKLMKEGSEKEKPQPLEPTSALSNGCALANHAPALPCINPLSALQSVLNNHLGKATEPLRSPSCSSPSSSTISMFHKSNLNVMDKPVLSPASTRSASVSRRYLFENSDQPIDLTKSKSKKAESSQAQSCMSPPQKHALSDIADMVKVLPKATTPKPASSSRVPPMKLEMDVRRFEDVSSEVSTLHKRKGRQSNWNPQHLLILQAQFASSLFQTSEGKYLLSDLGPQERMQISKFTGLSMTTISHWLANVKYQLRKTGGTKFLKNMDKGHPIFYCSDCASQFRTPSTYISHLESHLGFQMKDMTRLSVDQQSKVEQEISRVSSAQRSPETIAAEEDTDSKFKCKLCCRTFVSKHAVKLHLSKTHSKSPEHHSQFVTDVDEE | -1.212 |
| USP49 (protein, UniProt Q70CQ1 1-688, looked up) Ubiquitin carboxyl-terminal …: MDRCKHVGRLRLAQDHSILNPQKWCCLECATTESVWACLKCSHVACGRYIEDHALKHFEETGHPLAMEVRDLYVFCYLCKDYVLNDNPEGDLKLLRSSLLAVRGQKQDTPVRRGRTLRSMASGEDVVLPQRAPQGQPQMLTALWYRRQRLLARTLRLWFEKSSRGQAKLEQRRQEEALERKKEEARRRRREVKRRLLEELASTPPRKSARLLLHTPRDAGPAASRPAALPTSRRVPAATLKLRRQPAMAPGVTGLRNLGNTCYMNSILQVLSHLQKFRECFLNLDPSKTEHLFPKATNGKTQLSGKPTNSSATELSLRNDRAEACEREGFCWNGRASISRSLELIQNKEPSSKHISLCRELHTLFRVMWSGKWALVSPFAMLHSVWSLIPAFRGYDQQDAQEFLCELLHKVQQELESEGTTRRILIPFSQRKLTKQVLKVVNTIFHGQLLSQVTCISCNYKSNTIEPFWDLSLEFPERYHCIEKGFVPLNQTECLLTEMLAKFTETEALEGRIYACDQCNSKRRKSNPKPLVLSEARKQLMIYRLPQVLRLHLKRFRWSGRNHREKIGVHVVFDQVLTMEPYCCRDMLSSLDKETFAYDLSAVVMHHGKGFGSGHYTAYCYNTEGGFWVHCNDSKLNVCSVEEVCKTQAYILFYTQRTVQGNARISETHLQAQVQSSNNDEGRPQTFS | -0.174 |
| TWIST2 (protein, UniProt Q8WVJ9 1-160, looked up) Twist-related protein 2: MEEGSSSPVSPVDSLGTSEEELERQPKRFGRKRRYSKKSSEDGSPTPGKRGKKGSPSAQSFEELQSQRILANVRERQRTQSLNEAFAALRKIIPTLPSDKLSKIQTLKLAARYIDFLYQVLQSDEMDNKMTSCSYVAHERLSYAFSVWRMEGAWSMSASH | -0.4698 |
| TULP2 (protein, UniProt O00295 1-520, looked up) Tubby-related protein 2: MSQDNDTLMRDILGHELAAMRLQKLEQQRRLFEKKQRQKRQELLMVQANPDASPWLWRSCLREERLLGDRGLGNPFLRKKVSEAHLPSGIHSALGTVSCGGDGRGERGLPTPRTEAVFRNLGLQSPFLSWLPDNSDAELEEVSVENGSVSPPPFKQSPRIRRKGWQAHQRPGTRAEGESDSQDMGDAHKSPNMGPNPGMDGDCVYENLAFQKEEDLEKKREASESTGTNSSAAHNEELSKALKGEGGTDSDHMRHEASLAIRSPCPGLEEDMEAYVLRPALPGTMMQCYLTRDKHGVDKGLFPLYYLYLETSDSLQRFLLAGRKRRRSKTSNYLISLDPTHLSRDGDNFVGKVRSNVFSTKFTIFDNGVNPDREHLTRNTARIRQELGAVCYEPNVLGYLGPRKMTVILPGTNSQNQRINVQPLNEQESLLSRYQRGDKQGLLLLHNKTPSWDKENGVYTLNFHGRVTRASVKNFQIVDPKHQEHLVLQFGRVGPDTFTMDFCFPFSPLQAFSICLSSFN | -0.5004 |

— paper PMC11574045, “A cofactor-induced repressive type of transcription factor condensation can be induced by synthetic peptides to suppress tumorigenesis” (The EMBO Journal, 2024)
